{"source": "paper PMC9775377", "about": "“The High-Resolution Structure Reveals Remarkable Similarity in PD-1 Binding of Cemiplimab and Dostarlimab, the FDA-Approved Antibodies for Cancer Immunotherapy” (Biomedicines, 2022)", "biological_target": "T1, extracellular domain of human PD-1 (aa 26-150) (human, UniProt Q15116)", "T1 construct": "Programmed cell death-1 (PD-1), human, extracellular domain, aa 26-150; any point mutation of the construct would be told there or in PDB 8GY5; also called Programmed cell death-1; ectodomain of PD-1", "T1 sequence (Q15116 26-150)": "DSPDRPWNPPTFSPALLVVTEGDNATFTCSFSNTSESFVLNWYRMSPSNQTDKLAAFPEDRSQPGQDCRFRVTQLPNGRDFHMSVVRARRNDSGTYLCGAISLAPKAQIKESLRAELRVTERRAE", "assay": "crystal structure; Fab mixed with PD-1 at a molar ratio of 1:1.2, complex purified by gel filtration (20 mM Tris pH 7.5, 200 mM NaCl); hanging-drop vapor diffusion, 0.1 M sodium HEPES pH 7.5, 5% PEG 3350, 20 °C; 1.98 Å, two copies of the complex in the asymmetric unit", "conditions": "both partners purified"}
{"binder": "cemiplimab Fab (Fab, V domains shown, heavy chain of the cemiplimab Fab; in PDB 8GY5 (deposited here); light chain (kappa) of the cemiplimab Fab; Cemiplimab is a fully human IgG4 (S228P) kappa antibody; also called Fab fragment of cemiplimab; LIBTAYO) VH: EVQLLESGGVLVQPGGSLRLSCAASGFTFSNFGMTWVRQAPGKGLEWVSGISGGGRDTYFADSVKGRFTISRDNSKNTLYLQMNSLKGEDTAVYYCVKWGNIYFDYWGQGTLVTVSS VL: DIQMTQSPSSLSASVGDSITITCRASLSINTFLNWYQQKPGKAPNLLIYAASSLHGGVPSRFSGSGSGTDFTLTIRTLQPEDFATYYCQQSSNTPFTFGPGTVVDFR", "values": [{"measurement": "binding result", "value": "binds"}]}
